± gives the standard deviation.

This series is described as follows: protein stability index of a GFP-peptide fusion (GPS, HEK-293T) (PSI 1-6); higher = more stable.
[1] abbreviates: treatment: DMSO, c terminus: a fixed tail appended.
Where [2] appears, read: treatment: MLN4924 1 uM, 8 h, c terminus: a fixed tail appended.
[3] abbreviates: treatment: DMSO, c terminus: native.
Setting [4] is: treatment: MLN4924 1 uM, 8 h, c terminus: native.
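Note: 24-mer peptide tiles fused after GFP, lentivirally expressed, FACS-sorted into six equal bins by GFP/DsRed ratio, decoded by Illumina sequencing, PSI is the read-weighted mean bin number.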

As to FSVKFEVQAPRWGNPRALSFVLSS [OAS1], the protein stability index runs as follows: under setting [1], 2.94 ± 0.27; under setting [2], 3.01 ± 0.49.

For FTRSQTLIQNGGEIDCVDKDGNTP [ANKRD44], the protein stability index under setting [1] is 4.74 ± 0.16 and the protein stability index under setting [2] was determined as 4.81 ± 0.21.

FWHDTLTEQLWRIFAGVHDEKAKP [TLE6]: the protein stability index is, setting by setting: under setting [1], 2.23 ± 0.41; under setting [2], 2.41 ± 0.76.

For the sequence GAAFRDHQLLEPIRDFEARKCPVH [TRIM29], the protein stability index amounted to 3.73 ± 0.26 under setting [1] and 3.88 ± 0.17 under setting [2].

Regarding GADKEILTTKGEMPVQLTSRREIR [ANKRD40], the protein stability index under setting [1] amounted to 4.83 ± 0.13 and the protein stability index under setting [2] turned out to be 4.95 ± 0.19.

Consider GAEPGTYLTGTINGDPESVASLHW [ADAMTS4], for which the protein stability index was determined as 4.52 ± 0.87 under setting [1] and 3.67 ± 0.62 under setting [2].

Regarding GAEPSAPGGGGSPGACPALGTKSC [RTN3], the protein stability index by setting is: under setting [1], 5.36 ± 0.26; under setting [2], 5.4 ± 0.26.

GAGPPEPLRICPLHISVKEELDG [TRIM35]: the protein stability index turned out to be 4.21 ± 0.32 under setting [3] and 4.56 ± 0.14 under setting [4].

The sequence GAIAVFVYASDKEWIRFDQSNVLC [PTGFR] showed a protein stability index under setting [1] of 3.02 ± 0.34 and a protein stability index under setting [2] of 2.87 ± 0.47.

In turn, GARQISYSIPEELEKGSFVGNISK [PCDHGA10] came in with a protein stability index under setting [1] of 4.13 ± 0.19 and a protein stability index under setting [2] of 4.23 ± 0.17.

Regarding GAYDFPSPEWDTVTPEAKDLINKM [CAMK2D], the protein stability index runs as follows: under setting [1], 4.536 ± 0.038; under setting [2], 4.07 ± 0.093.

With GDEFSLREHELLCRADHGLLLERA [ISL2], the protein stability index stood at 4.06 ± 0.49 under setting [1] and 3.65 ± 0.35 under setting [2].

On to GDTKRATPIEVLCENFPEMATYLR [CSNK1G3], for which the protein stability index is, setting by setting: under setting [1], 3.04 ± 0.33; under setting [2], 2.97 ± 0.38.

Regarding GERPRSEEDNELNLPNLAAAYSSI [GCH1], the protein stability index came to 4.71 ± 0.3 under setting [1] and 4.75 ± 0.075 under setting [2].

On to GEVPVLIHGENIICEATQIIDYLE [GDAP1], for which the protein stability index runs as follows: under setting [1], 3.55 ± 0.29; under setting [2], 3.6 ± 0.3.

For the sequence GFSLEDPQTHSNRIYRMIKLGLGI [HSP90AB1], the protein stability index under setting [1] was 2.06 ± 0.42 and the protein stability index under setting [2] is 2.29 ± 0.3.

GFWRIDPQYAERLLSGAFKKRRLP [FOXJ1]: the protein stability index under setting [1] was determined as 2.56 ± 0.12 and the protein stability index under setting [2] was 2.4 ± 0.37.

As for GGCGGPRAWSQCGGGGLRAWSQRS [CPOX], the protein stability index runs as follows: under setting [1], 2.73 ± 0.74; under setting [2], 2.56 ± 0.46.

In turn, GGEGVEVELLHNTSYTRQACLVSC [SCNN1D] had a protein stability index under setting [1] of 2.9 ± 0.2 and a protein stability index under setting [2] of 2.55 ± 0.31.

In the case of GGGGAPRGRYGPPSRRSENRVVVS [SRSF1], the protein stability index by setting is: under setting [1], 4.36 ± 0.16; under setting [2], 4.29 ± 0.12.

For the sequence GGIRGRAMALTSSMNWGINLLISL [SLC2A12], the protein stability index by setting is: under setting [1], 2.26 ± 0.7; under setting [2], 2.54 ± 0.42.

GGKRRRDDISVDSLDFTKKILHTA [PPP2R2C]: the protein stability index is, setting by setting: under setting [1], 3.17 ± 0.21; under setting [2], 3.77 ± 0.36.

Take GGPFPLPYTAPGGYLDVGSKPMY [TBX6]: the protein stability index turned out to be 3.12 ± 0.43 under setting [3] and 3.43 ± 0.2 under setting [4].

As for GGPQALVNIMRTYTYEKLLWTTSR [CTNNB1], the protein stability index runs as follows: under setting [1], 2.43 ± 0.6; under setting [2], 2.5 ± 0.27.

For the sequence GGQESSGLNLGKKISVPRDVMLEE [MYOZ1], the protein stability index runs as follows: under setting [1], 5.07 ± 0.27; under setting [2], 5.1 ± 0.23.

As for GGTSSNNSEEEEDDDDEEEEVSEV [ANKRD17], the protein stability index came out at 5.5 ± 0.23 under setting [1] and 5.54 ± 0.16 under setting [2].

Turning to GHEEWVGSAYLFVESSLDKVVLSD [TRADD], the protein stability index was 2.41 ± 0.45 under setting [1] and 2.45 ± 0.55 under setting [2].

Regarding GHGADVLCLDLAPSETGNTFVSGG [GNB5], the protein stability index runs as follows: under setting [1], 4.24 ± 0.084; under setting [2], 4.33 ± 0.4.

In the case of GIVGLNNIKANDYANAVLQALSNV [USP39], the protein stability index under setting [1] turned out to be 2.25 ± 0.42 and the protein stability index under setting [2] is 2.25 ± 0.45.
